Results on one protein are retold here after doi:10.1101/2023.12.21.572875, “Structure of the human systemic RNAi defective transmembrane protein 1 (hSIDT1) reveals the conformational flexibility of its lipid binding domain” (bioRxiv, 2024).

The data set concerns the molecule itself. Briefly: cryo-EM structure; single-particle cryo-EM of purified hSIDT1-GFP at 1 mg/ml in 0.5% digitonin, 25 mM Tris-HCl pH 7.5, 200 mM NaCl, with 100 uM fluorinated octyl-maltoside; no cholesterol or analogues; blotted at 18°C; C2 symmetry imposed.

B1: human systemic RNAi-defective transmembrane family member 1 (hSIDT1), full length, C-terminal GFP-Strep-tag-II fusion (natural protein, UniProt Q9NXL6 20-827, looked up)
chain: ASPGHPAKSPRQPPAPRRDPFDAARGADFDHVYSGVVNLSTENIYSFNYTSQPDQVTAVRVYVNSSSENLNYPVLVVVRQQKEVLSWQVPLLFQGLYQRSYNYQEVSRTLCPSEATNETGPLQQLIFVDVASMAPLGAQYKLLVTKLKHFQLRTNVAFHFTASPSQPQYFLYKFPKDVDSVIIKVVSEMAYPCSVVSVQNIMCPVYDLDHNVEFNGVYQSMTKKAAITLQKKDFPGEQFFVVFVIKPEDYACGGSFFIQEKENQTWNLQRKKNLEVTIVPSIKESVYVKSSLFSVFIFLSFYLGCLLVGFVHYLRFQRKSIDGSFGSNDGSGNMVASHPIAASTPEGSNYGTIDESSSSPGRQMSSSDGGPPGQSDTDSSVEESDFDTMPDIESDKNIIRTKMFLYLSDLSRKDRRIVSKKYKIYFWNIITIAVFYALPVIQLVITYQTVVNVTGNQDICYYNFLCAHPLGVLSAFNNILSNLGHVLLGFLFLLIVLRRDILHRRALEAKDIFAVEYGIPKHFGLFYAMGIALMMEGVLSACYHVCPNYSNFQFDTSFMYMIAGLCMLKLYQTRHPDINASAYSAYASFAVVIMVTVLGVVFGKNDVWFWVIFSAIHVLASLALSTQIYYMGRFKIDLGIFRRAAMVFYTDCIQQCSRPLYMDRMVLLVVGNLVNWSFALFGLIYRPRDFASYMLGIFICNLLLYLAFYIIMKLRSSEKVLPVPLFCIVATAVMWAAALYFFFQNLSSWEGTPAESREKNRECILLDFFDDHDIWHFLSATALFFSFLVLLTLDDDLDVVRRDQIPVF
modifications: lacks complex N-glycosylation; density for N-acetylglucosamine at the predicted N-glycosylation sites N57, N67, N83, N136, N282 (not modelled)
notes: human SIDT1 (systemic RNAi-defective transmembrane family member 1), full length, codon-optimized synthetic gene (GenScript); UniProt Q9NXL6 printed for the AlphaFold model used in model building; Homodimer with C2 symmetry; Not modelled in the structure: the first 40 residues, cytosolic loops CL1 and CL4, Q278-N286 and the C-terminal GFP; The native signal peptide may be removed in the mature …
The term stoichiometry N denotes a count of units in the complex or per binding partner. B1: the “stoichiometry N” value worked out at 2.
